Experiment [1] concerns the target human angiotensin receptor type 2 expressed in Sf9 insect cells (human) (UniProt P50052). The experiment is described as follows: radioligand binding; membranes from small-scale cultures; radioactive-labelled specific ligand; specific binding in pmol/mg-membrane, mean ± S.D., n = 3.
Experiment [2] addresses human angiotensin receptor type 2 expressed in P. pastoris (human) (UniProt P50052). The experiment is described as above.

Regarding “Angiotensin (printed as "Angiotenin"), radioactive-labelled agonist (peptide)”, the specific binding activity (pmol/mg-membrane) is 1.66 in experiment [1] and 3.69 in experiment [2].

(Values after publication PMC3094209.)
